Among the data in paper PMC5080355, “Interaction of the Nitrogen Regulatory Protein GlnB (PII) with Biotin Carboxyl Carrier Protein (BCCP) Controls Acetyl-CoA Levels in the Cyanobacterium Synechocystis sp. PCC 6803” (Frontiers in Microbiology, 2016) are EC50 of inhibition of reconstituted E. coli ACC activity by increasing GlnB (coupled PK/LDH assay, 10 mM ATP) and maximum inhibition of reconstituted E. coli ACC activity (coupled PK/LDH assay, 10 mM ATP) values, retold here.

The assay concerns the target E. coli biotin carboxyl carrier protein (His-BCCP), subunit of acetyl-CoA carboxylase (E. coli) (UniProt P0ABD8).

Sequence of GlnB (PII) from Synechococcus elongatus PCC7942, wild type (P0A3F4 whole entry): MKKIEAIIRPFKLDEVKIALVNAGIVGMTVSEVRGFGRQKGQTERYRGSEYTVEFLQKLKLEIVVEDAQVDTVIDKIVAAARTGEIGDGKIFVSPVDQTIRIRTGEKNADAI

For “GlnB (PII) from Synechococcus elongatus PCC7942, wild type (from UniProt P0A3F4 1-112) (natural protein)”, the EC50 of inhibition of reconstituted E. coli ACC activity by increasing GlnB (coupled PK/LDH assay, 10 mM ATP) is 310 nM and the maximum inhibition of reconstituted E. coli ACC activity (coupled PK/LDH assay, 10 mM ATP) turned out to be 93%.
